Consider one molecule from article PMC12642504 (bioRxiv, 2025).

For this test, the target named is BG505 MD39.3 SOSIP trimer (soluble Env trimer, SPR analyte) (HIV-1 group M subtype A, isolate BG505, stabilised). Description: SPR. For orientation: In SPR one partner is held on a chip, and binding of the other changes the refractive index at the surface.

B1: V2-Int1 antibody (PCT64-18D), human IgG1 (antibody, V domains shown)
VH: EVQLVESGGGLVKPGGSLRLSCVGSGFAFSDAWMTWVRQAPGKGLEWVGHMRPTPEGGAKDYAAPVKGRFTVSRDDSKNTLYLQMNSLKIEDTAVYYCMTGVETGDFWSDYYAQYYDPYLIDVWGKGTTVTVSS
VL: EIVLTQSPGTLSLSPGDRATLSCRATQSVDSNYLAWYQQKPGQAPRLLIYGTSSRAAGIPDRFSGSGSGTDFTLTIDRLEPEDFAVYYCRQYGTSFTFGPGTKVDIK
As for B1, the Kd (commonly the constant that tells how readily two partners part at equilibrium) was 770 nM.
